Tests used:
[1] = target: T1, biotinylated AviTag-haBiP^V461F(19-654), AMPylated (Chinese hamster, UniProt G3I8R9 19-654, V461F, AMP on Thr518 (AMPylation); biotin on the AviTag); experiment: BLI; biotinylated AMPylated or unmodified BiP immobilised on streptavidin biosensors; FICD His363Ala variants in solution at 250 nM; HKM plus 0.05% Triton X-100, 30 °C (Figure S2G); settings: both partners purified
T1 construct: Chinese hamster BiP (haBiP), aa 19-654; also called BiP-AMP; AMPylated BiP; not shown: GST, N-terminal, cleaved; AviTag, N-terminal, kept
T1 sequence (G3I8R9 19-654 V461F): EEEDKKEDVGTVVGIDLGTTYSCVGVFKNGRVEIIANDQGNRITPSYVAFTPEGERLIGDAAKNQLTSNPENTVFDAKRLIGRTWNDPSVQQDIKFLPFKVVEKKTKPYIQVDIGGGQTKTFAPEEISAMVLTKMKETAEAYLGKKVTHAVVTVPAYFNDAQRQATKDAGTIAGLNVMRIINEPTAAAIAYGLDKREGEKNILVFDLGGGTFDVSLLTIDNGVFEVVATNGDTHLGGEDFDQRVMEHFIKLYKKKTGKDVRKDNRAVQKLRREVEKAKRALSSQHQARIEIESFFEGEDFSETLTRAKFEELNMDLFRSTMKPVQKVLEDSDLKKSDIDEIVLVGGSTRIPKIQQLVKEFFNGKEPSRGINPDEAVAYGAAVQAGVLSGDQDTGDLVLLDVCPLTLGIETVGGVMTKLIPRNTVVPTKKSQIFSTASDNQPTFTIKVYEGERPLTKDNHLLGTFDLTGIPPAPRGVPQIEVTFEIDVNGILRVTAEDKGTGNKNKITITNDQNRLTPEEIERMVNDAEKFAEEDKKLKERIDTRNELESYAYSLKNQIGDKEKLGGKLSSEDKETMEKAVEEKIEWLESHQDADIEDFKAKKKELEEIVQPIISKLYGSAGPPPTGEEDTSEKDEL

[2] = target: T2, biotinylated AviTag-haBiP(28-635)^T229A-V461F (Chinese hamster, UniProt G3I8R9 28-635, T229A | V461F, biotin on the AviTag); experiment: BLI; biotinylated BiP^T229A-V461F(28-635) immobilised on streptavidin biosensors and pre-saturated with ATP (2 mM); FICD His363Ala variants at 250 nM, without or with nucleotide (ATP 8 mM, ADP 2 mM); HKM plus 0.05% Triton X-100, 30 °C; settings: both partners purified
T2 construct: Chinese hamster BiP (haBiP), aa 28-635; the assay tells the nucleotide state; also called BiP^T229A-V461F:Apo; BiP:ATP; not shown: GST, N-terminal, cleaved; AviTag, N-terminal, kept
T2 sequence (G3I8R9 28-635 T229A/V461F): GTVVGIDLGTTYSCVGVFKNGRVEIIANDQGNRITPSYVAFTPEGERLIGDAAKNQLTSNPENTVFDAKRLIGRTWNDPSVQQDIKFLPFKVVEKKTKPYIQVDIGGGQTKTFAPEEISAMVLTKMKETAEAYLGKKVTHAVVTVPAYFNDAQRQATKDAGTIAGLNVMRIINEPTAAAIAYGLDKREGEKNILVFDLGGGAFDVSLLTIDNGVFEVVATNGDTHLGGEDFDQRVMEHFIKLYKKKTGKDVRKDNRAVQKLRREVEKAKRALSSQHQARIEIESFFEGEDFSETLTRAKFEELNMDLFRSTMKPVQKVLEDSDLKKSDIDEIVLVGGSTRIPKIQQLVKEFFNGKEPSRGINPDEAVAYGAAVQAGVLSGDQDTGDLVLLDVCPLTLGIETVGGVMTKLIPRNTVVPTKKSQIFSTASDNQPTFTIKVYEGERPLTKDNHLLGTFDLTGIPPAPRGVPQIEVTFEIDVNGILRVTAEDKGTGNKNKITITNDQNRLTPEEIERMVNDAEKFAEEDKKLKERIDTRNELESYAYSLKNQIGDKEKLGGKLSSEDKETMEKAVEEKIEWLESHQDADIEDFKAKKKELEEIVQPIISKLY

[3] = target: T3, biotinylated AviTag-FICD(104-458)^H363A (human, UniProt Q9BVA6 104-458, H363A, biotin on the AviTag); experiment: BLI; dimer dissociation: biotinylated AviTag-FICD(104-458)^H363A (3 nM) pre-incubated with FICD^H363A (300 nM), loaded on streptavidin biosensors; dissociation by infinite dilution into HKTx buffer ± nucleotide at 5 mM, 30 °C; mono-exponential fit; settings: both partners purified
T3 construct: human FICD (HYPE), aa 104-458; Expression, purification and biotinylation of this construct are not described; also called N-terminally biotinylated FICD^H363A; UK 2422; not shown: AviTag, N-terminal, kept
T3 sequence (looked up): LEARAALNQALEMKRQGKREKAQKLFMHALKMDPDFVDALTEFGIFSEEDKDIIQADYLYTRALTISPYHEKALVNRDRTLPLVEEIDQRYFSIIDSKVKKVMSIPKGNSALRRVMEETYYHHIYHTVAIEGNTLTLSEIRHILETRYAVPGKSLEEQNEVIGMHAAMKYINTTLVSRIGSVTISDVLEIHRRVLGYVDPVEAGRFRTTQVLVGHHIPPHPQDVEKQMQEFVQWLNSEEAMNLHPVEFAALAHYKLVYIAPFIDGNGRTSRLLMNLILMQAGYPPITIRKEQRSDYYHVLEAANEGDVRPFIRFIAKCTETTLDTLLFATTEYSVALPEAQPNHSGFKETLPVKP

[4] = target: the molecule itself; experiment: SEC; analytical SEC, SEC-3 HPLC column, HKMC buffer (50 mM HEPES-KOH pH 7.4, 150 mM KCl, 10 mM MgCl2, 1 mM CaCl2), 25 °C; FICD at 20 µM, or 0.2-50 µM after 16 h at 25 °C (Figure S1D-E); approximate Kd of dimer to monomers from elution peak times
[5] = target: the molecule itself; experiment: crystal structure; sitting drop vapour diffusion, FICD at 9 mg/ml in 10 mM Tris-HCl pH 8.0, 150 mM NaCl, 1 mM TCEP, ± 10 mM MgATP
[6] = target: the molecule itself; experiment: AUC; fluorescence-detected sedimentation velocity, Oregon Green-labelled FICD 1.6 µM to 31 pM, 20 °C, 50 mM HEPES-KOH pH 7.4, 150 mM KCl, 10 mM MgCl2, 1 mM CaCl2, 0.3 mM TCEP, 0.1% Tween-20, 0.15 mg/ml BSA; monomer-dimer fit (dimer to monomers)

B1: FICD^H363A (aa 104-445) (domain or fragment, human, UniProt Q9BVA6 104-445, looked up)
chain: LEARAALNQALEMKRQGKREKAQKLFMHALKMDPDFVDALTEFGIFSEEDKDIIQADYLYTRALTISPYHEKALVNRDRTLPLVEEIDQRYFSIIDSKVKKVMSIPKGNSALRRVMEETYYHHIYHTVAIEGNTLTLSEIRHILETRYAVPGKSLEEQNEVIGMHAAMKYINTTLVSRIGSVTISDVLEIHRRVLGYVDPVEAGRFRTTQVLVGHHIPPHPQDVEKQMQEFVQWLNSEEAMNLHPVEFAALAHYKLVYIAPFIDGNGRTSRLLMNLILMQAGYPPITIRKEQRSDYYHVLEAANEGDVRPFIRFIAKCTETTLDTLLFATTEYSVALPEAQP
notes: human FICD (HYPE), aa 104-445; also called dFICD^H363A; source: E. coli T7 Express lysY/I^q, purified (Ni-NTA, on-column Ulp1 cleavage, anion exchange, SEC); not shown: His6, N-terminal, cleaved; Smt3, N-terminal, cleaved
For B1, the binding result [1] was “binds”, the binding result [2] was “binds” and the “fold increase in the dimer off rate with ATP (5 mM) against no nucleotide” value [3] was 3 fold.

B2: FICD^L258D-H363A (aa 104-445) (domain or fragment, human, UniProt Q9BVA6 104-445, looked up)
chain: LEARAALNQALEMKRQGKREKAQKLFMHALKMDPDFVDALTEFGIFSEEDKDIIQADYLYTRALTISPYHEKALVNRDRTLPLVEEIDQRYFSIIDSKVKKVMSIPKGNSALRRVMEETYYHHIYHTVAIEGNTLTLSEIRHILETRYAVPGKSDEEQNEVIGMHAAMKYINTTLVSRIGSVTISDVLEIHRRVLGYVDPVEAGRFRTTQVLVGHHIPPHPQDVEKQMQEFVQWLNSEEAMNLHPVEFAALAHYKLVYIAPFIDGNGRTSRLLMNLILMQAGYPPITIRKEQRSDYYHVLEAANEGDVRPFIRFIAKCTETTLDTLLFATTEYSVALPEAQP
notes: human FICD (HYPE), aa 104-445; also called mFICD^H363A; source: E. coli T7 Express lysY/I^q, purified (Ni-NTA, on-column Ulp1 cleavage, anion exchange, SEC); not shown: His6, N-terminal, cleaved; Smt3, N-terminal, cleaved
B2: binds [1]; binds [2].

B3: wild-type FICD (aa 104-445) (domain or fragment, human, UniProt Q9BVA6 104-445, looked up)
chain: LEARAALNQALEMKRQGKREKAQKLFMHALKMDPDFVDALTEFGIFSEEDKDIIQADYLYTRALTISPYHEKALVNRDRTLPLVEEIDQRYFSIIDSKVKKVMSIPKGNSALRRVMEETYYHHIYHTVAIEGNTLTLSEIRHILETRYAVPGKSLEEQNEVIGMHAAMKYINTTLVSRIGSVTISDVLEIHRRVLGYVDPVEAGRFRTTQVLVGHHIPPHPQDVEKQMQEFVQWLNSEEAMNLHPVEFAALAHYKLVYIHPFIDGNGRTSRLLMNLILMQAGYPPITIRKEQRSDYYHVLEAANEGDVRPFIRFIAKCTETTLDTLLFATTEYSVALPEAQP
notes: human FICD (HYPE), aa 104-445; Dimer by SEC, AUC and crystal structure; also called HYPE; dFICD; source: E. coli T7 Express lysY/I^q, purified (Ni-NTA, on-column Ulp1 cleavage, anion exchange, SEC); not shown: His6, N-terminal, cleaved; Smt3, N-terminal, cleaved
B3: binds [4].

B4: FICD^K256A (aa 104-445) (domain or fragment, human, UniProt Q9BVA6 104-445, looked up)
chain: LEARAALNQALEMKRQGKREKAQKLFMHALKMDPDFVDALTEFGIFSEEDKDIIQADYLYTRALTISPYHEKALVNRDRTLPLVEEIDQRYFSIIDSKVKKVMSIPKGNSALRRVMEETYYHHIYHTVAIEGNTLTLSEIRHILETRYAVPGASLEEQNEVIGMHAAMKYINTTLVSRIGSVTISDVLEIHRRVLGYVDPVEAGRFRTTQVLVGHHIPPHPQDVEKQMQEFVQWLNSEEAMNLHPVEFAALAHYKLVYIHPFIDGNGRTSRLLMNLILMQAGYPPITIRKEQRSDYYHVLEAANEGDVRPFIRFIAKCTETTLDTLLFATTEYSVALPEAQP
notes: human FICD (HYPE), aa 104-445; also called dimeric dimer relay mutant FICD^K256A; source: E. coli T7 Express lysY/I^q, purified (Ni-NTA, on-column Ulp1 cleavage, anion exchange, SEC); not shown: His6, N-terminal, cleaved; Smt3, N-terminal, cleaved
B4: binds [5].

B5: Oregon Green-labelled FICD^NC (domain or fragment, human)
chain: CLEARAALNQALEMKRQGKREKAQKLFMHALKMDPDFVDALTEFGIFSEEDKDIIQADYLYTRALTISPYHEKALVNRDRTLPLVEEIDQRYFSIIDSKVKKVMSIPKGNSALRRVMEETYYHHIYHTVAIEGNTLTLSEIRHILETRYAVPGKSLEEQNEVIGMHAAMKYINTTLVSRIGSVTISDVLEIHRRVLGYVDPVEAGRFRTTQVLVGHHIPPHPQDVEKQMQEFVQWLNSEEAMNLHPVEFAALAHYKLVYIHPFIDGNGRTSRLLMNLILMQAGYPPITIRKEQRSDYYHVLEAANEGDVRPFIRFIAKCTETTLDTLLFATTEYSVALPEAQP
modifications: Oregon Green 488 on the added N-terminal cysteine (labelling efficiency 74%)
notes: N-terminal cysteine added for site-specific labelling, told in words only; human FICD (HYPE), aa 104-445 (purified 'as described above'); also called UK 2339; wild-type (red); source: E. coli, purified (Ni-NTA, anion exchange, SEC), labelled with Oregon Green 488-iodoacetamide; not shown: His6, N-terminal, cleaved; Smt3, N-terminal, cleaved
B5 gave a Kd [6] of 1.2 nM.
